Laboratory results from US20230012273A1 (Boehringer Ingelheim, published 2023).

T1: cynoSIRPα (XP_015313155), Extracellular Domain + His-Tag (cynomolgus monkey)
T1 construct: also called CySIRPα XP_015313155; not shown: His-Tag
T1 chain: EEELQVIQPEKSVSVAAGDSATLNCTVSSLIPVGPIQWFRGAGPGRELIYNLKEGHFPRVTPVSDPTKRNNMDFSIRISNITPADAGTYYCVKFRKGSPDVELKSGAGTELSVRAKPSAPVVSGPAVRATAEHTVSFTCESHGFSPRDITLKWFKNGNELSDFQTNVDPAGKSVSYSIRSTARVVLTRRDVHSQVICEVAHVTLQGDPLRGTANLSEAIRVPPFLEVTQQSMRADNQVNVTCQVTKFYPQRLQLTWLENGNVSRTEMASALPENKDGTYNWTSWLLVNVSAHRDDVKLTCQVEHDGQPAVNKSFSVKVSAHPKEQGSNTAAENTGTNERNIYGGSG

T2: cynoSIRPα (NP_001271679), Extracellular Domain + His-Tag (cynomolgus monkey)
T2 construct: also called CySIRPα NP_001271679; not shown: His-Tag
T2 chain: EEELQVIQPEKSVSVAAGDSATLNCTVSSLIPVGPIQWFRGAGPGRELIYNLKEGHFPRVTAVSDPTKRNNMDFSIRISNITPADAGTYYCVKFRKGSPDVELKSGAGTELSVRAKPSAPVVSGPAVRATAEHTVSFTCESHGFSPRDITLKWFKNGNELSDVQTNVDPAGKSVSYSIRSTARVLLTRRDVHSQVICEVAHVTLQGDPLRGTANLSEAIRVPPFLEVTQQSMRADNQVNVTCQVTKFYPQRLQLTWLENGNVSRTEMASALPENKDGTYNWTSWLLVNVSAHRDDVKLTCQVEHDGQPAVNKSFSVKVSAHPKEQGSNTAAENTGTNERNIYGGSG

T3: cynoSIRPα (EGM_02252), Extracellular Domain + His-Tag (cynomolgus monkey)
T3 construct: also called CySIRPα EGM_02252; not shown: His-Tag
T3 chain: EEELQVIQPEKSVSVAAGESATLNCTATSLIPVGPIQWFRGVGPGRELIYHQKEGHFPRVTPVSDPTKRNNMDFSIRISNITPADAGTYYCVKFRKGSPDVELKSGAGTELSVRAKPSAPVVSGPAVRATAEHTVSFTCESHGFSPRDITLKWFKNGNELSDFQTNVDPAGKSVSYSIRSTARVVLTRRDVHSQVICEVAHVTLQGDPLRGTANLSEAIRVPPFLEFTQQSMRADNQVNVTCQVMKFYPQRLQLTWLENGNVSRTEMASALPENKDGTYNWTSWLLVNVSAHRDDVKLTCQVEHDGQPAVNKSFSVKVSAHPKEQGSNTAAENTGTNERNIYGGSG


Legend:
[1] = molecular target: T4, Human SIRPαV2 (CAA71403.1), Extracellular Domain + His-Tag (human, UniProt P78324 31-373); experiment: SPR, antibody captured on Protein A/G, ECD-His analyte, 1:1 fit
T4 construct: also called huSIRPαV2; hSIRPαV2; not shown: His-Tag
Procedure: (§1) The binding kinetics of anti-SIRPα antibodies to various SIRPα analytes are determined by surface plasmon resonance (SPR) using a Biacore 8K+(Cytiva). 1×HBS-EP+(Cytiva) is used as running buffer and for all the dilutions unless stated otherwise. The Series S CM5 sensorchip is activated with a 1:1 mixture of 0.1 M NHS (N-hydroxysuccinimide) and 0.4 M EDC (1-Ethyl-3-(3-dimethylaminopropyl) carbodiimide hydrochloride) for 420 seconds at a flow rate of 10 μl/min and immobilized with Protein A/G (Thermo Scientific, 10 μg/ml in 10 mM acetate pH 4.5) for 420 seconds at a flowrate of 10 μl/min resulting in approximately 3000 RU of Protein A/G on the surface. The sensorchip is then deactivated with 1 M ethanolamine HCl pH 8.5 for 420 seconds at a flowrate of 10 μl/min.
(§2) Antibodies (approximately 1 ug/ml) are captured on the Protein A/G surface for 60 seconds at a flowrate of 10 μl/min resulting in capture levels of approximately 240 RU. Dilutions of each SIRP protein (Extracellular Domain+His-Tag, with the concentrations as indicated) are injected as analytes over the captured antibody for 300 seconds of association at a flowrate of 30 μl/min, followed by a dissociation for 600 seconds.
(§3) The above procedures are used to measure binding properties of antibodies of the present disclosure. For each analyte used, the highest concentration was as indicated in Example 3 (see Table 36).

[2] = molecular target: T5, Human SIRPαV1 (NP_542970.1), Extracellular Domain + His-Tag (human, UniProt P78324 31-373); experiment: as above
T5 construct: also called huSIRPαV1; hSIRPαV1; not shown: His-Tag
Procedure: as §1, §2, §3

[3] = molecular target: T1, cynoSIRPα (XP_015313155), Extracellular …; experiment: as above
Procedure: as §1, §2, §3

[4] = molecular target: T2, cynoSIRPα (NP_001271679), Extracellular …; experiment: as above
Procedure: as §1, §2, §3

[5] = molecular target: T3, cynoSIRPα (EGM_02252), Extracellular …; experiment: SPR, antibody captured on Protein A/G, ECD-His analyte
Procedure: as §1, §2

T4 sequence (P78324 other isoform, or with tags, fused parts or gaps): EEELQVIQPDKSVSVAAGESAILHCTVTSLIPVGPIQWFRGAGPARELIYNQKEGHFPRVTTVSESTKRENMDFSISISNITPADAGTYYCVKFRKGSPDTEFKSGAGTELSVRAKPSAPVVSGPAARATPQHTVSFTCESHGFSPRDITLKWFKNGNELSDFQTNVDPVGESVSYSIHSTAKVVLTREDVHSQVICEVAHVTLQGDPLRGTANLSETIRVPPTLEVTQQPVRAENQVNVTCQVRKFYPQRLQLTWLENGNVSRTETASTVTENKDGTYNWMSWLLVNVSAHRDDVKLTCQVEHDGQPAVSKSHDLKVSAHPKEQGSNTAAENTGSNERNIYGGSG
T5 sequence (P78324 other isoform, or with tags, fused parts or gaps): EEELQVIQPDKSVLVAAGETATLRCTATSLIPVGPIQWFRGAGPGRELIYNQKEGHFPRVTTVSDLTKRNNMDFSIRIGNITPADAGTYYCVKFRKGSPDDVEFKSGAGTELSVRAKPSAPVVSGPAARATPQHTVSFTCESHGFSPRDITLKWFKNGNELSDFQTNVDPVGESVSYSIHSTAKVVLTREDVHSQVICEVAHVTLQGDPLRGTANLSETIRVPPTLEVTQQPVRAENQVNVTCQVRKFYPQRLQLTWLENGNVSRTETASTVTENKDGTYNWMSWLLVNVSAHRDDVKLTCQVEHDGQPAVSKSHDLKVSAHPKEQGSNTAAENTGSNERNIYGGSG

| Kd [1] | koff [1] | kon [1] | Kd [2] | koff [2] | kon [2] | Kd [3] | koff [3] | kon [3] | Kd [4] | koff [4] | kon [4] | binding result [5] | Binder |
| --- | --- | --- | --- | --- | --- | --- | --- | --- | --- | --- | --- | --- | --- |
| 0.94 nM | 0.000548 s⁻¹ | 583000 M⁻¹ s⁻¹ | 1.22 nM | 0.000631 s⁻¹ | 518000 M⁻¹ s⁻¹ | 40.8 nM | 0.0132 s⁻¹ | 324000 M⁻¹ s⁻¹ | 43.7 nM | 0.014 s⁻¹ | 321000 M⁻¹ s⁻¹ | no binding (tested: 1000 nM) | Antibody E9 (antibody, human IgG1, kappa, L234A L235A, V domains shown) VH: QVQLQESGPGLVRPSETLSLTCTVSGGSIRNYYWSWIRQPPGKGLEWIGFIYYNGRTFYNPSLKSRVTISLDMSINQFSLKMTSVTAADTAVYYCARVRAYSGIGLDGTDVWGQGTTVTVSS VL: DIVMTQSPLSLPVTPGEPASISCKSSQSLLYSNAYNYLDWYLQRPGQSPQLLIYLGSNRASGVPDRFSGSGSGTDFTLKISRVEAEDVGVYYCMQALQTPLTFGGGTKVEIKR |
| 1.2 nM | 0.000596 s⁻¹ | 498000 M⁻¹ s⁻¹ | 1.23 nM | 0.000518 s⁻¹ | 422000 M⁻¹ s⁻¹ | 23.7 nM | 0.00526 s⁻¹ | 222000 M⁻¹ s⁻¹ | 25.2 nM | 0.00545 s⁻¹ | 216000 M⁻¹ s⁻¹ | no binding (tested: 1000 nM) | Antibody E10 (antibody, human IgG1, kappa, L234A L235A, V domains shown) VH: QVQLQESGPGLVRPSETLSLTCTVSGGSIRNYYWSWIRQPPGKGLEWIGFIYYNGRTFYNPSLKSRVTISLDTSKNQFSLKMTSVTAADTAVYYCARVRAYSGIGLDGTDVWGQGTTVTVSS VL: DIVMTQSPLSLPVTPGEPASISCKSSQSLLYSNGYAYLDWYLQRPGQSPQLLIYLGSNRASGVPDRFSGSGSGTDFTLKISRVEAEDVGVYYCMQALQTPLTFGGGTKVEIKR |
| 1.26 nM | 0.000709 s⁻¹ | 562000 M⁻¹ s⁻¹ | 1.67 nM | 0.000819 s⁻¹ | 490000 M⁻¹ s⁻¹ | 42.2 nM | 0.0125 s⁻¹ | 297000 M⁻¹ s⁻¹ | 46.1 nM | 0.0129 s⁻¹ | 279000 M⁻¹ s⁻¹ | no binding (tested: 1000 nM) | Antibody E12 (antibody, human IgG1, kappa, L234A L235A, V domains shown) VH: QVQLQESGPGLVRPSETLSLTCTVSGGSIRNYYWSWIRQPPGKGLEWIGFIYYNGRTFYNPSLKSRVTISLDMSKNQFSLKMTSVTAADTAVYYCARVRAYSGIGLDGTDVWGQGTTVTVSS VL: DIVMTQSPLSLPVTPGEPASISCKSSQSLLYSNAYNYLDWYLQRPGQSPQLLIYLGSNRASGVPDRFSGSGSGTDFTLKISRVEAEDVGVYYCMQALQTPLTFGGGTKVEIKR |
| 1.36 nM | 0.000615 s⁻¹ | 453000 M⁻¹ s⁻¹ | 1.84 nM | 0.000743 s⁻¹ | 403000 M⁻¹ s⁻¹ | 86.3 nM | 0.0173 s⁻¹ | 200000 M⁻¹ s⁻¹ | 90.7 nM | 0.0173 s⁻¹ | 190000 M⁻¹ s⁻¹ | no binding (tested: 1000 nM) | Antibody E14 (antibody, human IgG1, kappa, L234A L235A, V domains shown) VH: QVQLQESGPGLVRPSETLSLTCTVSGGSIRNYYWSWIRQPPGKGLEWIGFIYYNGRTFYNPSLKSRVTISLDKSKNQFSLKMTSVTAADTAVYYCARVRAYSGIGLDGTDVWGQGTTVTVSS VL: DIVMTQSPLSLPVTPGEPASISCKSSQSLLYSNAYNYLDWYLQRPGQSPQLLIYLGSNRASGVPDRFSGSGSGTDFTLKISRVEAEDVGVYYCMQALQTPLTFGGGTKVEIKR |
| 1.93 nM | 0.00105 s⁻¹ | 547000 M⁻¹ s⁻¹ | 2.15 nM | 0.00106 s⁻¹ | 490000 M⁻¹ s⁻¹ | 48.8 nM | 0.0147 s⁻¹ | 300000 M⁻¹ s⁻¹ | 50 nM | 0.0158 s⁻¹ | 313000 M⁻¹ s⁻¹ | no binding (tested: 1000 nM) | Antibody E16 (antibody, human IgG1, kappa, L234A L235A, V domains shown) VH: QVQLQESGPGLVRPSETLSLTCTVSGGSIRNYYWSWIRQPPGKGLEWIGFIYYNGRTFYNPSLKSRVTISLDTSKNQFSLKMTSVTAADTAVYYCARVRAYSGIGLDGTDVWGQGTTVTVSS VL: DIVMTQSPLSLPVTPGEPASISCKSSQSLLYSNAYNYLDWYLQRPGQSPQLLIYLGSNRASGVPDRFSGSGSGTDFTLKISRVEAEDVGVYYCMQALQTPLTFGGGTKVEIKR |
| 0.74 nM | 0.000369 s⁻¹ | 501000 M⁻¹ s⁻¹ | 1.91 nM | 0.000802 s⁻¹ | 421000 M⁻¹ s⁻¹ | 46.2 nM | 0.0113 s⁻¹ | 245000 M⁻¹ s⁻¹ | 49.4 nM | 0.012 s⁻¹ | 243000 M⁻¹ s⁻¹ | no binding (tested: 1000 nM) | Antibody E15 (antibody, human IgG1, kappa, L234A L235A, V domains shown) VH: QVQLQESGPGLVRPSETLSLTCTVSGGSIRNYYWSWIRQPPGKGLEWIGFIYYTGRTFYNPSLKSRVTISLDMSINQFSLKMTSVTAADTAVYYCARVRAYSGIGLDGTDVWGQGTTVTVSS VL: DIVMTQSPLSLPVTPGEPASISCKSSQSLLYSNGYAYLDWYLQRPGQSPQLLIYLGSNRASGVPDRFSGSGSGTDFTLKISRVEAEDVGVYYCMQALQTPLTFGGGTKVEIKR |
| 0.57 nM | 0.000258 s⁻¹ | 453000 M⁻¹ s⁻¹ | 1.41 nM | 0.000498 s⁻¹ | 352000 M⁻¹ s⁻¹ | 20 nM | 0.00549 s⁻¹ | 275000 M⁻¹ s⁻¹ | 20.3 nM | 0.00542 s⁻¹ | 267000 M⁻¹ s⁻¹ | no binding (tested: 1000 nM) | Antibody E11 (antibody, human IgG1, kappa, L234A L235A, V domains shown) VH: QVQLQESGPGLVRPSETLSLTCTVSGGSIRNYYWSWIRQPPGKGLEWMGFIYDNGRTFYNPSLKSRVTISLDMSMNQFSLKMTSVTAADTAVYYCARVRAYSGIGLDGTDVWGQGTTVTVSS VL: DIVMTQSPLSLPVTPGEPASISCKSSQSLLYSNGYAYLDWYLQRPGQSPQLLIYLGSNRASGVPDRFSGSGSGTDFTLKISRVEAEDVGVYYCMQALQTPLTFGGGTKVEIKR |
| 0.69 nM | 0.000338 s⁻¹ | 490000 M⁻¹ s⁻¹ | 1.7 nM | 0.000671 s⁻¹ | 394000 M⁻¹ s⁻¹ | 37.4 nM | 0.00711 s⁻¹ | 190000 M⁻¹ s⁻¹ | 38.3 nM | 0.00755 s⁻¹ | 197000 M⁻¹ s⁻¹ | no binding (tested: 1000 nM) | Antibody E13 (antibody, human IgG1, kappa, L234A L235A, V domains shown) VH: QVQLQESGPGLVRPSETLSLTCTVSGGSIRNYYWSWIRQPPGKGLEWIGFIYYTGRTFYNPSLKSRVTISLDMSINQFSLKMTSVTAADTAVYYCARVRAYSGIGLDGTDVWGQGTTVTVSS VL: DIVMTQSPLSLPVTPGEPASISCKSSQSLLYSNGYAYLDWYLQRPGQSPQLLIYQGSNRASGVPDRFSGSGSGTDFTLKISRVEAEDVGVFYCMQALQTPLTFGGGTKVEIKR |
